# Changes are numbered by the printed parent chain.
# B1: SEQ ID NO: 1 negative control (other)
# chain: QDSTSDLIPAPPLSKVPLQQNFQDNQFQGKWYVVGLAGNAILREDKDPQKMYATIYELKEDKSYNVTSVLFRKKKCDYWIRTFVPGCQPGEFTLGNIKSYPGLTSYLVRVVSTNYNQHAMVFFKKVSQNREYFKITLYGRTKELTSELKENFIRFSKSLGLPENHIVFPVPIDQCIDG
# notes: Lipocalin negative control; also called mature hNGAL
# B2: lipocalin mutein of SEQ ID NO: 2 (designed binder)
# chain: QDSTSDLIPAPPLSKVPLQQNFQDNQFHGKWYVVGQAGNYILREDKDPGKMWATIYELKEDKSYDVTEVSFGAKKCNYRIWTFVPGSQPGEFTLGGIKSDPGGTSTLVRVVSTNYNQHAMVFFKHVLQNREFFEITLYGRTKELTSELKENFIRFSKSLGLPENHIVFPVPIDQCIDG
# notes: hNGAL mutein specific for Ang-2, tested in monomeric form; also called positive control lipocalin mutein; Ang-2-specific lipocalin mutein in monomeric form
# B3: lipocalin mutein of SEQ ID NO: 3 (designed binder)
# chain: B2 chain with Q36H, A73P, D100P
# notes: as for B2
# Target: T1, recombinant human Ang-2 (human, UniProt O15123 19-496, limits assumed)
# T1 construct: also called hAng-2; human angiopoietin-2
# T1 sequence (looked up): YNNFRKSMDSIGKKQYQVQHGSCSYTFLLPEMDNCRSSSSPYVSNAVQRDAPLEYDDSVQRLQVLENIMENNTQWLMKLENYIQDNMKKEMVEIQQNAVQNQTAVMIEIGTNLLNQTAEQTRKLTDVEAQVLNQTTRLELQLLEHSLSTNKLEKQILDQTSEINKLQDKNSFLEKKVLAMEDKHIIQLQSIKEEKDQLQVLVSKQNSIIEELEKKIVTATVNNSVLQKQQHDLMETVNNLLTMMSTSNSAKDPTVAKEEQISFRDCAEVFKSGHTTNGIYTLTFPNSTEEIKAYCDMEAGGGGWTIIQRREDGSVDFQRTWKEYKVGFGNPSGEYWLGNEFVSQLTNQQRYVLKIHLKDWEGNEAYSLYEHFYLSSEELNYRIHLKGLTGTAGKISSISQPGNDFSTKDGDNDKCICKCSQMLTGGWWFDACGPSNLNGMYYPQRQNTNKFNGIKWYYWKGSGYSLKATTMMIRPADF
# Test: ELISA, recombinant human Ang-2 coated, detection with anti-human IgG Fc-HRP or anti-lipocalin-HRP, signal normalised (RU %)
# Description: Bound agents under study were detected via an anti-human-IgG-Fc antibody or anti-lipocalin antibody as described in Example 3. The data was fit with a 1:1 binding model with EC50 value and the maximum signal as free parameters, and a slope that was fixed to unity.
# The target was dissolved in PBS (5 μg/mL) and coated overnight on microtiter plates at 4° C. The plate was washed after each incubation step with 80 μL PBS-T five times. The plates were blocked with 2% BSA (w/v) in PBS for 1 h at room temperature and subsequently washed. […] Bound agents under study were detected after incubation for 1 h at room temperature with 1:1000 diluted anti-lipocalin antibody conjugated to HRP in PBS-T or 1:5000 diluted anti-human IgG Fc-HRP (#109-035-098, Jackson […]) in PBS-T. After an additional wash step, fluorogenic HRP substrate (QuantaBlu, Thermo) was added to each well and the fluorescence intensity was detected using a fluorescence microplate reader.
Binder,binding result,EC50 (read off the curve) [nM]
B1,no binding (tested: 100 nM),–
B2,–,~0.4
B3,–,~0.6

# Reference: patent US20180334499A1 (Pieris, published 2018)
